Common to all, as to settings: tags: Chemicon (Temecula, CA)
The target in series [1] is T1, Tenascin-C (Homo sapiens, UniProt P24821 P24821:23-2201). Briefly: filter; orphan. How it is done: (§1) which contains the T7 polymerase promoter (underlined). RNA was prepared with T7 RNA polymerase as described previously in Fitzwater, T., and Polisky, B. 1996. A SELEX primer. Methods Enzymol. 267, 275-301, incorporated herein by reference in its entirety. All transcription reactions were performed in the presence of pyrimidine nucleotides that were 2′-fluoro (2′-F) modified on the sugar moiety. This substitution confers enhanced resistance to ribonucleases that utilize the 2′-hydroxyl moiety for cleavage of the phosphodiester bond. Specifically, each transcription mixture contained 3.3 mM 2′-F UTP and 3.3 mM 2′-F CTP along with 1 mM GTP and ATP. The initial randomized RNA library thus produced comprised 3×10¹⁴ molecules. The affinities of individual ligands for tenascin-C were determined by standard methods using nitrocellulose filter partitioning (Tuerk C, Gold L. Science Aug. 3, 1990 3;249(4968):505-10).
T1 sequence (P24821 23-2201, one chain of several): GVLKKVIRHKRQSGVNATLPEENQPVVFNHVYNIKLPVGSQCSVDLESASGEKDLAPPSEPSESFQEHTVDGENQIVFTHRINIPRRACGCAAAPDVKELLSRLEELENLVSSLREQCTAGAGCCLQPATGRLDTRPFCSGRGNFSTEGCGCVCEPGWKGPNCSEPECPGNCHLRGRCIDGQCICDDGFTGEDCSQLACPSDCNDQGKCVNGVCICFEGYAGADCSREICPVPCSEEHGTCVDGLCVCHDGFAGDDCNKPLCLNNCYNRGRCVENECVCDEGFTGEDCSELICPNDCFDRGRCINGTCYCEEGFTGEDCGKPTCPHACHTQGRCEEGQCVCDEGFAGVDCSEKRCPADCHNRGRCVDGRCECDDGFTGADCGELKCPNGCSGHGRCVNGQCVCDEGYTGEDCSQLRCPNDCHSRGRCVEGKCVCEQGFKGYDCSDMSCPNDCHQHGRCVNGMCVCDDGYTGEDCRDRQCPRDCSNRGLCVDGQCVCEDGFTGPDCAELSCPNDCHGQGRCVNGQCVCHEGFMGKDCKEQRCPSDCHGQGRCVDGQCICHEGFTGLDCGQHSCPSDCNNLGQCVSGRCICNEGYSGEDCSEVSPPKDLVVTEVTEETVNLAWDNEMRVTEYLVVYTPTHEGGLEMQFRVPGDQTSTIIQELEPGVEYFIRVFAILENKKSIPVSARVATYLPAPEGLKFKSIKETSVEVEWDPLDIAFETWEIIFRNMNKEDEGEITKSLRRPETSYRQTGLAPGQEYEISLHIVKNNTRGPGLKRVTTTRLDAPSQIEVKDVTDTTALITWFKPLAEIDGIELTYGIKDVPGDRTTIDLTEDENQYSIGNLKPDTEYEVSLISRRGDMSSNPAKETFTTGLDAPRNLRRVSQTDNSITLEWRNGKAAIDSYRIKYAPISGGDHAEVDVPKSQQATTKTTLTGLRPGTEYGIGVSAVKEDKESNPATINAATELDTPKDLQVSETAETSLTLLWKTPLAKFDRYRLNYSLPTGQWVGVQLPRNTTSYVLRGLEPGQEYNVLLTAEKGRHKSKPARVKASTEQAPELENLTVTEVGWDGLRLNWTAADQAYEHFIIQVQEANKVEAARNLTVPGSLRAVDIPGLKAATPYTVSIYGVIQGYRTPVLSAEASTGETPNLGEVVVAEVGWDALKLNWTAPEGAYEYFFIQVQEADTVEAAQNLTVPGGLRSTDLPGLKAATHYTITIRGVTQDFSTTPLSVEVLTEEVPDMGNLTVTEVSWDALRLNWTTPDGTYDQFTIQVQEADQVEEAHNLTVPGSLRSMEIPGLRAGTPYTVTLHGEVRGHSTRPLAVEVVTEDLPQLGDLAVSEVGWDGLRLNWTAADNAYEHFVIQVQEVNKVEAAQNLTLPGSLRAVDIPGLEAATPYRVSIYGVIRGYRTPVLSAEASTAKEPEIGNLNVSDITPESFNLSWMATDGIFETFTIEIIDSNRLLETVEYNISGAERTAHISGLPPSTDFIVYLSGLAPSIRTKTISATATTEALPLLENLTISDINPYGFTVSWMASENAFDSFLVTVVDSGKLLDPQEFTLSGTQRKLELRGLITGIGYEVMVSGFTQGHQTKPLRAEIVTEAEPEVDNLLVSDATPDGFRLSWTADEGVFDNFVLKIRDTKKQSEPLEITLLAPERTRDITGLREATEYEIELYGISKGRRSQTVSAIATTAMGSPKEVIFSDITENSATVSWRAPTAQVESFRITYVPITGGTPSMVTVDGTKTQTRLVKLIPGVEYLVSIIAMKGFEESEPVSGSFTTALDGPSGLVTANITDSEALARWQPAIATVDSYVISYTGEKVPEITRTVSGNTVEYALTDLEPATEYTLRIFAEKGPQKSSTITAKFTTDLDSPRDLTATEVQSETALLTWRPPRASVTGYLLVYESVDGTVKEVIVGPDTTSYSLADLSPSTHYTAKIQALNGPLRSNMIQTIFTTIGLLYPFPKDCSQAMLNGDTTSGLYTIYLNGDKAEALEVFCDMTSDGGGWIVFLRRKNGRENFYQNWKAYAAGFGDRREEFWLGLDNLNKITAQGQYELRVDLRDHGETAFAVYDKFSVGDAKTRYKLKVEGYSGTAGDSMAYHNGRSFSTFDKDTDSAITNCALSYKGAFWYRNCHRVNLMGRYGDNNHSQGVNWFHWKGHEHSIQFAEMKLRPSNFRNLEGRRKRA

The target in series [2] is T1, Tenascin-C. Put plainly: filter; Family I. The method, then:
as §1

The target of series [3] is T1, Tenascin-C. Briefly: filter; Family II.
The target in series [4] is T1, Tenascin-C. Put plainly: filter.
For series [5], the target named is T1, Tenascin-C. Briefly: filter; Family I; printed as 7N22.
For series [6], the target named is T1, Tenascin-C. Put plainly: filter; unit printed as nN. An excerpt:
(§2) Oligonucleotide synthesis procedures were standard for those skilled in the art (Green L S, Jellinek D, Bell C, Beebe L A, Feistner B D, Gill S C, Jucker F M, Janjic N. Chem Biol 1995 Oct.;2(10):683-95). 2′-fluoro pyrimidine phosphoramidite monomers were obtained from JBL Scientific (San Luis Obispo, Calif.); 2′-OMe purine, 2′-OH purine, hexyl amine, and (CH₂CH₂O)₆ monomers, along with the dT polystyrene solid support, were obtained from Glen Research (Sterling, Va.). Aptamer affinities were determined using nitrocellulose filter partitioning (Green et al., supra).

Series [7] addresses T1, Tenascin-C. Briefly: filter.
Source text: as §2
The source holds these as a separate data set.

Results on 34 molecules are retold here after patent US20030104377, “Tenascin-C nucleic acid ligands” (Gilead Sciences, Inc., published 2003).

B1: TN27 (ssRNA)
RNA: GGGAGGACGAUGCGGAAACCAACCGUUGACCACCUUUUCGUUUCCGGAAAGUCCCCAGACGACUCGCCCGA
modifications: 2'-F C and U
One may read the Kd as the constant that tells how readily two partners part at equilibrium. For the molecule B1, in the series with Tenascin-C [1], the Kd worked out at 110 nM.

B2: TN18 (ssRNA)
RNA: GGGAGGACGAUGCGGUCGACCUCGAAUGACUCUCCACCUAUCUAACAUCCCCCCCCAGACGACUCGCCCGA
modifications: 2'-F C and U
For the molecule B2, the Kd in the series with Tenascin-C [1] came out at 145 nM.

B3: TN11 (ssRNA)
RNA: GGGAGGACGAUGCGGCAAUCAAAACUCACGUUAUUCCCUCAUCUAUUAGCUUCCCCAGACGACUCGCCCGA
modifications: 2'-F C and U
In the series with Tenascin-C [2], B3 displayed a Kd of 10 nM.

B4: TN24 (ssRNA)
RNA: GGGAGGACGAUGCGGGACCAACUAAACUGUUCGAAAGCUGGAACAUGUCCUGACGCCAGACGACUCGCCCGA
modifications: 2'-F C and U
As to B4, in the series with Tenascin-C [1], the Kd was found to be 10 nM.

B5: TN44 (ssRNA)
RNA: GGGAGGACGAUGCGGACGCCAGCCAUUGACCCUCGCUUCCACUAUUCCAUCCCCCCAGACGACUCGCCCGA
modifications: 2'-F C and U
Molecule B5 had a dissociation constant (Kd) with Tenascin-C [2] of 10 nM. This counts as double-digit nanomolar.

B6: TN7 (ssRNA)
RNA: GGGAGGACGAUGCGGAACACUUUCCCAUGCGUCGCCAUACCGGAUAUAUUGCUCCCAGACGACUCGCCCGA
modifications: 2'-F C and U
Consider B6, for which, in the series with Tenascin-C [3], the Kd turned out to be 20 nM.

B7: TN32 (ssRNA)
RNA: GGGAGGACGAUGCGGCAACCUCAAUCUUGACAUUUCCCGCACCUAAAUUUGCCCCCAGACGACUCGCCCGA
modifications: 2'-F C and U
The molecule B7 gave a Kd with Tenascin-C [2] of 15 nM. That is a double-digit nanomolar value.
Regarding GGGAGGACGCACUCGUCGCCGUAAUGGAUGUUUUGCUCCCUG (ssRNA, 2'-F C and U [2'-F: 8,10,12-14,16,17,19,20,22,25,29,31-34,36-41]) [TN9 with CACU loop], the binding result with Tenascin-C [4] is “binds”.
Same read-out and setting: the value for GGGAGGACGGAGACGUCGCCGUAAUGGAUGUUUUGCUCCCUG (ssRNA, 2'-F C and U [2'-F: 8,14,16,17,19,20,22,25,29,31-34,36-41]) [TN9 with GAGA loop] was “binds”.

B8: TN41 (ssRNA)
RNA: GGGAGGACGAUGCGGUUAAGUCUCGGUUGAAUGCCCAUCCCAGAUCCCCCUGACCCAGACGACUCGCCCGA
modifications: 2'-F C and U
Take B8: in the series with Tenascin-C [3], binding was put at a Kd of 20 nM.

B9: E9P2-1 (ssRNA)
RNA: GGGAGGACGAUGCGGUGCCCAUAGAAGCGUGCCGCUAAUGCUAACGCCCUCCCCCAGACGACUCGCCCGA
modifications: 2'-F C and U
B9 registered a Kd with Tenascin-C [3] of 2 nM.

B10: TN21 (ssRNA)
RNA: GGGAGGACGAUGCGGACUGGACCAAACCGUCGCCGAUACCCGGAUACUUUGCUCCCAGACGACUCGCCCGA
modifications: 2'-F C and U
In turn, B10 came in with a dissociation constant (Kd) in the series with Tenascin-C [3] of 10 nM.

B11: TN29 (ssRNA)
RNA: GGGAGGACGAUGCGGCCAACCUCAUUUUGACACUUCGCCGCACCUAAUUGCCCCCAGACGACUCGCCCGA
modifications: 2'-F C and U
Turning to B11, in the series with Tenascin-C [2], binding was characterised by a dissociation constant (Kd) of 25 nM.

B12: TN4 (ssRNA)
RNA: GGGAGGACGAUGCGGCAACCUCGAAAGACUUUUCCCGCAUCACUGUGUACUCCCCCAGACGACUCGCCCGA
modifications: 2'-F C and U
Regarding B12, the equilibrium dissociation constant (Kd) with Tenascin-C [2] was 40 nM.

B13: TN22 (ssRNA)
RNA: GGGAGGACGAUGCGGCAACCUCGAUAGACUUUUCCCGCAUCACUGUGUACUCCCCCAGACGACUCGCCCGA
modifications: 2'-F C and U
In the case of B13, in the series with Tenascin-C [5], the dissociation constant Kd stood at 40 nM.

B14: TN14 (ssRNA)
RNA: GGGAGGACGAUGCGGCAAACGAUCACUUACCUUUCCUGCAUCUGCUAGCCUCCCCCAGACGACUCGCCCGA
modifications: 2'-F C and U
For the molecule B14, in the series with Tenascin-C [2], binding was characterised by a dissociation constant (Kd) of 20 nM. This lies in the double-digit nanomolar range.

B15: TN45 (ssRNA)
RNA: GGGAGGACGAUGCGGCAAUCUCCGAAAAAGACUCUUCCUGCAUCCUCUCACCCCCCAGACGACUCGCCCGA
modifications: 2'-F C and U
The molecule B15 gave a Kd with Tenascin-C [2] of 30 nM.

B16: TN9.4 (ssRNA)
RNA: GGGAGGACGAUGCGGAACAAUGCACUCGUCGCCGUAAUGGAUGUUUUGCUCCCUG
modifications: 2'-F C and U; 3'-3' cap
B16 yielded an equilibrium dissociation constant (Kd) with Tenascin-C [6] of 2 nM. That is a single-digit nanomolar value.

B17: TN9.4M3 (ssRNA)
RNA: GGGAGGACGAUGCGGAACAAUGCACUCGUCGCCGUAAUGGAUGUUUUGCUCCCUG
modifications: 2'-F C and U; 2'-OMe G15,A16,A17,A19,A20,G22,A24; 3'-3' cap
Turning to B17, in the series with Tenascin-C [7], binding was put at a Kd of 7 nM.

B18: TN9.4M135G34 (ssRNA)
RNA: GGGAGGACGAUGCGGAACAAUGCACUCGUCGCCGUAAUGGAUGUUUUGCUCCCUG
modifications: 2'-F C and U; 2'-OMe purines of sectors 1,3,5 plus G34; 5' hexyl amine; 3'-3' cap
In the series with Tenascin-C [7], B18 registered a Kd of 7 nM.

B19: TN9.4M135G6 (ssRNA)
RNA: GGGAGGACGAUGCGGAACAAUGCACUCGUCGCCGUAAUGGAUGUUUUGCUCCCUG
modifications: 2'-F C and U; 2'-OMe purines of sectors 1,3,5 plus G6; 5' hexyl amine; 3'-3' cap
B19 gave a Kd with Tenascin-C [7] of 2.2 nM.

B20: TN9.4M135G28 (ssRNA)
RNA: GGGAGGACGAUGCGGAACAAUGCACUCGUCGCCGUAAUGGAUGUUUUGCUCCCUG
modifications: 2'-F C and U; 2'-OMe purines of sectors 1,3,5 plus G28; 5' hexyl amine; 3'-3' cap
As for B20, in the series with Tenascin-C [7], the Kd worked out at 37 nM. This Kd is about 17-fold higher than that of the molecule before.

B21: TN9.4M135G31 (ssRNA)
RNA: GGGAGGACGAUGCGGAACAAUGCACUCGUCGCCGUAAUGGAUGUUUUGCUCCCUG
modifications: 2'-F C and U; 2'-OMe purines of sectors 1,3,5 plus G31; 5' hexyl amine; 3'-3' cap
In the series with Tenascin-C [7], B21 had a Kd of 55 nM.

B22: TN9.4Me (ssRNA)
RNA: GGGAGGACGAUGCGGAACAAUGCACUCGUCGCCGUAAUGGAUGUUUUGCUCCCUG
modifications: 2'-F C and U; 2'-OMe all purines; 3'-3' cap
Turning to B22, in the series with Tenascin-C [7], the Kd is 10 nM. Against the preceding molecule, the Kd is about 5.5-fold lower.

B23: TN9.4M5 (ssRNA)
RNA: GGGAGGACGAUGCGGAACAAUGCACUCGUCGCCGUAAUGGAUGUUUUGCUCCCUG
modifications: 2'-F C and U; 2'-OMe A36,A37,G39,G40,A41,G43,G48; 3'-3' cap
Regarding B23, in the series with Tenascin-C [7], the affinity, expressed as Kd, was 4 nM.

B24: TN9.4M1235 (ssRNA)
RNA: GGGAGGACGAUGCGGAACAAUGCACUCGUCGCCGUAAUGGAUGUUUUGCUCCCUG
modifications: 2'-F C and U; 2'-OMe purines of sectors 1,2,3,5 (G28,G31,G34 2'-OH); 5' hexyl amine; 3'-3' cap
B24 came in with an equilibrium dissociation constant (Kd) with Tenascin-C [7] of 16.5 nM. This Kd is about 4.1-fold higher than that of the molecule before.

B25: TN9.4M135G12G14 (ssRNA)
RNA: GGGAGGACGAUGCGGAACAAUGCACUCGUCGCCGUAAUGGAUGUUUUGCUCCCUG
modifications: 2'-F C and U; 2'-OMe purines of sectors 1,3,5 plus G12,G14; 5' hexyl amine; 3'-3' cap
As to B25, in the series with Tenascin-C [7], the dissociation constant Kd turned out to be 2.5 nM.

B26: TN9.4M135G9 (ssRNA)
RNA: GGGAGGACGAUGCGGAACAAUGCACUCGUCGCCGUAAUGGAUGUUUUGCUCCCUG
modifications: 2'-F C and U; 2'-OMe purines of sectors 1,3,5 plus G9; 5' hexyl amine; 3'-3' cap
With B26, the Kd in the series with Tenascin-C [7] was found to be 7.7 nM.

B27: TN9.4M1 (ssRNA)
RNA: GGGAGGACGAUGCGGAACAAUGCACUCGUCGCCGUAAUGGAUGUUUUGCUCCCUG
modifications: 2'-F C and U; 2'-OMe G1,G2,G3,A4,G5,G55; 3'-3' cap
In the series with Tenascin-C [7], B27 registered a Kd of 6 nM.

B28: TN9.4M135A7 (ssRNA)
RNA: GGGAGGACGAUGCGGAACAAUGCACUCGUCGCCGUAAUGGAUGUUUUGCUCCCUG
modifications: 2'-F C and U; 2'-OMe purines of sectors 1,3,5 plus A7; 5' hexyl amine; 3'-3' cap
For the molecule B28, the dissociation constant Kd in the series with Tenascin-C [7] was 1.7 nM.

B29: TN9.4M135A10 (ssRNA)
RNA: GGGAGGACGAUGCGGAACAAUGCACUCGUCGCCGUAAUGGAUGUUUUGCUCCCUG
modifications: 2'-F C and U; 2'-OMe purines of sectors 1,3,5 plus A10; 5' hexyl amine; 3'-3' cap
Take B29: the dissociation constant (Kd) in the series with Tenascin-C [7] is 1.3 nM.

B30: TN9.4M2 (ssRNA)
RNA: GGGAGGACGAUGCGGAACAAUGCACUCGUCGCCGUAAUGGAUGUUUUGCUCCCUG
modifications: 2'-F C and U; 2'-OMe G6,A7,G9,A10,G12,G14; 3'-3' cap
In the series with Tenascin-C [7], B30 had a Kd of 20 nM.

B31: E9P2-2 (ssRNA)
RNA: GGGAGGACGAUGCGGUGCCCACUAUGCGUGCCGAAAAACAUUUCCCCCUCUACCCCAGACGACUCGCCCGA
modifications: 2'-F C and U
Consider B31, for which the equilibrium dissociation constant (Kd) in the series with Tenascin-C [3] turned out to be 8 nM.

B32: TN9 (ssRNA)
RNA: GGGAGGACGAUGCGGAACAAUGCACUCGUCGCCGUAAUGGAUGUUUUGCUCCCUGCAGACGACUCGCCCGA
modifications: 2'-F C and U
Take B32: in the series with Tenascin-C [3], binding was characterised by a dissociation constant (Kd) of 5 nM.
